Data from the supplement of paper PMC10724198.
± gives the standard deviation of the averaged measurements.

Legend:
Test in all cases: protein stability index of tFT-peptide fusion (C-terminal peptide) (PSI (0-1 scale)); higher = more stable (slower turnover)
Saccharomyces cerevisiae [1] = conditions: temperature: 30 C
Description: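 MPS profiling in S. cerevisiae of the yeast C-terminome library: the last 12 aa of each annotated ORF are fused to the C-terminus of a sfGFP-mCherry timer, after a GGGS linker. Cells are FACS-sorted into 8 mCherry/sfGFP bins and deep-sequenced. PSI runs from 0 (unstable) to 1 (stable); wild type and das1Δ backgrounds, two technical replicates each.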

Saccharomyces cerevisiae [2] = system: Saccharomyces cerevisiae
Description: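 MPS profiling in S. cerevisiae of the tFT-X12 degron library: putative degron peptides plus stable controls, 12 aa, fused to the C-terminus of a sfGFP-mCherry timer. Cells are FACS-sorted into 8 mCherry/sfGFP bins and deep-sequenced. PSI runs from 0 (unstable) to 1 (stable). Backgrounds are wild type, das1Δ and doa10Δ at 30 °C, and wild type, das1Δ, cdc34-1 and cdc53-1 at 37 °C; 2-3 technical replicates each.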

Saccharomyces cerevisiae [3] = conditions: genetic background: wild type; temperature: 30 C
[4] = genetic background: das1 deletion
[5] = genetic background: cdc34-1, temperature: 37 C
[6] = genetic background: cdc53-1, temperature: 37 C
[7] = genetic background: das1 deletion, temperature: 30 C
[8] = genetic background: das1 deletion, temperature: 37 C
[9] = genetic background: doa10 deletion, temperature: 30 C
[10] = genetic background: wild type, temperature: 30 C
[11] = genetic background: wild type, temperature: 37 C

Sequence: CADCGTILNNFR [DGR2 C-terminal 12 aa]
- protein stability index (Saccharomyces cerevisiae [1]; [4]): 0.731 ± 0.017
- protein stability index (Saccharomyces cerevisiae [1]; genetic background: wild type): 0.748 ± 0.045

Sequence: CCCFLLELVCDN [YDR210W C-terminal 12 aa]
- protein stability index (Saccharomyces cerevisiae [1]; [4]): 0.512 ± 0.013
- protein stability index (Saccharomyces cerevisiae [1]; genetic background: wild type): 0.523 ± 0.018

Sequence: CDVKSSIIVGIL [YLR358C C-terminal 12 aa]
- protein stability index (Saccharomyces cerevisiae [1]; [4]): 0.638 ± 0.02
- protein stability index (Saccharomyces cerevisiae [1]; genetic background: wild type): 0.655 ± 0.059

Sequence: CIEIARHFVLKE [YEL009C-A C-terminal 12 aa]
- protein stability index (Saccharomyces cerevisiae [1]; [4]): 0.73 ± 0.014
- protein stability index (Saccharomyces cerevisiae [1]; genetic background: wild type): 0.708 ± 0.027

Sequence: CKQNSNCEYLYM [YOR365C C-terminal 12 aa]
- protein stability index (Saccharomyces cerevisiae [1]; [4]): 0.682 ± 0.012
- protein stability index (Saccharomyces cerevisiae [1]; genetic background: wild type): 0.699 ± 0.012

Sequence: CLRTVLKSDEIK [SFA1 C-terminal 12 aa]
- protein stability index (Saccharomyces cerevisiae [1]; [4]): 0.647 ± 0.025
- protein stability index (Saccharomyces cerevisiae [1]; genetic background: wild type): 0.663 ± 0.021

Sequence: CLSGIGLFPVSS [YHL030W-A C-terminal 12 aa]
- protein stability index (Saccharomyces cerevisiae [1]; [4]): 0.6846 ± 0.0057
- protein stability index (Saccharomyces cerevisiae [1]; genetic background: wild type): 0.69 ± 0.021

Sequence: CSTERPKRARCD [YOR342C C-terminal 12 aa]
- protein stability index (Saccharomyces cerevisiae [1]; [4]): 0.708 ± 0.0099
- protein stability index (Saccharomyces cerevisiae [1]; genetic background: wild type): 0.695 ± 0.029

Sequence: DALDIANRIGYI [RPL25 C-terminal 12 aa]
- protein stability index (Saccharomyces cerevisiae [1]; [4]): 0.668 ± 0.027
- protein stability index (Saccharomyces cerevisiae [1]; genetic background: wild type): 0.683 ± 0.012

Sequence: DDDDDGPYADDS [GSY2 C-terminal 12 aa]
- protein stability index (Saccharomyces cerevisiae [1]; [4]): 0.707 ± 0.0079
- protein stability index (Saccharomyces cerevisiae [1]; genetic background: wild type): 0.706 ± 0.019

Sequence: DDDEFDEDEFED [PAH1 C-terminal 12 aa]
- protein stability index (Saccharomyces cerevisiae [1]; [4]): 0.695 ± 0.03
- protein stability index (Saccharomyces cerevisiae [1]; genetic background: wild type): 0.7188 ± 0.0021

Sequence: DDKPKIPTMLNA [YME1 C-terminal 12 aa]
- protein stability index (Saccharomyces cerevisiae [1]; [4]): 0.7003 ± 0.0065
- protein stability index (Saccharomyces cerevisiae [1]; genetic background: wild type): 0.671 ± 0.046

Sequence: DDPDENTALLGA [YDR338C C-terminal 12 aa]
- protein stability index (Saccharomyces cerevisiae [1]; [4]): 0.7076 ± 0.0037
- protein stability index (Saccharomyces cerevisiae [1]; genetic background: wild type): 0.711 ± 0.034

Sequence: DDSSSTDTEERE [SSK2 C-terminal 12 aa]
- protein stability index (Saccharomyces cerevisiae [1]; [4]): 0.675 ± 0.028
- protein stability index (Saccharomyces cerevisiae [1]; genetic background: wild type): 0.683 ± 0.029

Sequence: DEDEFENQRQQF [YIL055C C-terminal 12 aa]
- protein stability index (Saccharomyces cerevisiae [1]; [4]): 0.71 ± 0.0099
- protein stability index (Saccharomyces cerevisiae [1]; genetic background: wild type): 0.709 ± 0.076

Sequence: DEEKQLSLSDMI [YOR186W C-terminal 12 aa]
- protein stability index (Saccharomyces cerevisiae [1]; [4]): 0.692 ± 0.03
- protein stability index (Saccharomyces cerevisiae [1]; genetic background: wild type): 0.672 ± 0.019

Sequence: WGGIASLVASAA
- protein stability index (Saccharomyces cerevisiae [2]; [5]): 0.36 ± 0.049
- protein stability index (Saccharomyces cerevisiae [2]; [6]): 0.437 ± 0.1
- protein stability index (Saccharomyces cerevisiae [2]; [7]): 0.236 ± 0.033
- protein stability index (Saccharomyces cerevisiae [2]; [8]): 0.411 ± 0.0061
- protein stability index (Saccharomyces cerevisiae [2]; [9]): 0.214 ± 0.006
- protein stability index (Saccharomyces cerevisiae [2]; [10]): 0.259 ± 0.019
- protein stability index (Saccharomyces cerevisiae [2]; [11]): 0.378 ± 0.023
- protein stability index (Saccharomyces cerevisiae [3]): 0.364 ± 0.0089

Sequence: WLFASCVFFWSS
- protein stability index (Saccharomyces cerevisiae [2]; [5]): 0.447 ± 0.045
- protein stability index (Saccharomyces cerevisiae [2]; [6]): 0.502 ± 0.0068
- protein stability index (Saccharomyces cerevisiae [2]; [7]): 0.386 ± 0.026
- protein stability index (Saccharomyces cerevisiae [2]; [8]): 0.525 ± 0.015
- protein stability index (Saccharomyces cerevisiae [2]; [9]): 0.355 ± 0.0086
- protein stability index (Saccharomyces cerevisiae [2]; [10]): 0.37 ± 0.0092
- protein stability index (Saccharomyces cerevisiae [2]; [11]): 0.483 ± 0.011
- protein stability index (Saccharomyces cerevisiae [3]): 0.426 ± 0.0054

Sequence: WLSFAIECGMVW
- protein stability index (Saccharomyces cerevisiae [2]; [5]): 0.1938 ± 0.0014
- protein stability index (Saccharomyces cerevisiae [2]; [6]): 0.28 ± 0.058
- protein stability index (Saccharomyces cerevisiae [2]; [7]): 0.252 ± 0.023
- protein stability index (Saccharomyces cerevisiae [2]; [8]): 0.3286 ± 0.0012
- protein stability index (Saccharomyces cerevisiae [2]; [9]): 0.2135 ± 0.0014
- protein stability index (Saccharomyces cerevisiae [2]; [10]): 0.249 ± 0.026
- protein stability index (Saccharomyces cerevisiae [2]; [11]): 0.287 ± 0.032
- protein stability index (Saccharomyces cerevisiae [3]): 0.357 ± 0.045

Sequence: WLTCSLVFNVFW
- protein stability index (Saccharomyces cerevisiae [2]; [5]): 0.429 ± 0.025
- protein stability index (Saccharomyces cerevisiae [2]; [6]): 0.455 ± 0.007
- protein stability index (Saccharomyces cerevisiae [2]; [7]): 0.406 ± 0.014
- protein stability index (Saccharomyces cerevisiae [2]; [8]): 0.482 ± 0.0057
- protein stability index (Saccharomyces cerevisiae [2]; [9]): 0.448 ± 0.032
- protein stability index (Saccharomyces cerevisiae [2]; [10]): 0.389 ± 0.026
- protein stability index (Saccharomyces cerevisiae [2]; [11]): 0.471 ± 0.015
- protein stability index (Saccharomyces cerevisiae [3]): 0.438 ± 0.0061

Sequence: WQSFRDKLIKGN
- protein stability index (Saccharomyces cerevisiae [2]; [5]): 0.646 ± 0.044
- protein stability index (Saccharomyces cerevisiae [2]; [6]): 0.716 ± 0.026
- protein stability index (Saccharomyces cerevisiae [2]; [7]): 0.643 ± 0.028
- protein stability index (Saccharomyces cerevisiae [2]; [8]): 0.754 ± 0.041
- protein stability index (Saccharomyces cerevisiae [2]; [9]): 0.188 ± 0.034
- protein stability index (Saccharomyces cerevisiae [2]; [10]): 0.204 ± 0.036
- protein stability index (Saccharomyces cerevisiae [2]; [11]): 0.3754 ± 0.0012
- protein stability index (Saccharomyces cerevisiae [3]): 0.264 ± 0.071
